Experimental data as given in patent US20050208041A1 (Bristol-Myers Squibb, published 2005).

Experiments:
[1] = target: T1, purified recombinant IFNAR-1 extracellular fragment (human, UniProt P17181 28-436); assay: Biacore, antibody on immobilized soluble IFNAR-1, maximal response, mean of four
T1 construct: extracellular domain; also called soluble IFNAR-1; soluble IFNAR
T1 sequence (looked up): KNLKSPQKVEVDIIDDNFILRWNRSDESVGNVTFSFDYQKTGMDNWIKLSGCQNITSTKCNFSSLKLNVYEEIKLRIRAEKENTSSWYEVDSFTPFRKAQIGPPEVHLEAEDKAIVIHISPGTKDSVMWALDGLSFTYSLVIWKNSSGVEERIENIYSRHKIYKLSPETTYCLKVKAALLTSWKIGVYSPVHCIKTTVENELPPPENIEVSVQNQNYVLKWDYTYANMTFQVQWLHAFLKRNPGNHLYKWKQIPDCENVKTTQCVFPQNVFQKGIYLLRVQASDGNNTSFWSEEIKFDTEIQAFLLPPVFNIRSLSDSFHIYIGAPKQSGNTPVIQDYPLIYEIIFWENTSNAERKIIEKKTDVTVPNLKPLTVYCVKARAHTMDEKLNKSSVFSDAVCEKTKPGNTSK
Method: Additional combination variants heavy chain DI M3-B and light chain DI K1-C were also made. These combination variants were also tested for binding to IFNAR-1. […] Binding analysis was done by Biacore, with the antibody bound to immobilized soluble IFNAR-1. Maximal response was determined at two concentrations and values shown are mean of four determinations.

[2] = target: T1, purified recombinant IFNAR-1 …; assay: Biacore, response on IFNAR-1 (flow cell 2) divided by response on anti-human IgG Fc (flow cell 4)
Excerpt: A series of antibodies were constructed with reduced numbers of potential T-cell epitopes. These included heavy chain variants M3-A and M3-B in which residues were changed in CDR regions and DI M3 in which framework residues were altered. De-immunized light chains were also constructed termed K1-C, K1-D, K1-E and DI K1. The antibodies were expressed and purified before analysis by Biacore. A Biacore chip was used with IFNAR-1 coated on Flow cell 2 at 690 RU and anti-human IgG Fc on flow cell 4 at 5000 RU. Binding of the antibody to IFNAR-1 relative to anti-human IgG Fc was determined by the ratio of response at flow cell 2 divided by flow cell 4 (Fc2/Fc4).

[3] = target: T1, purified recombinant IFNAR-1 …; assay: Biacore, maximal association on IFNAR-1 relative to M3K1
Excerpt: Pools 4 and 11 were selected for further study and the individual antibodies in each pool were produced and expressed separately. The sequences of these individual antibodies were as shown in SEQ ID NO:12 of FIG. 1F and SEQ ID NO: 13 of FIG. 1G. The data is presented as maximal association relative to M3K1. […]

Binder | % response relative to H3K1 [1] | % activity relative to M3K1 [3] | further results
DI M3 heavy chain with K1 light chain (antibody, human IgG4, V domains shown, also called DI M3 K1) VH: EVQLLESGGGLVQPGGSLRLSCAASGFTMSTSGMGIGWIRQTPGKGLEWVAHIWWDDDKYYNPSLKSRFTISKDTSKNTLYLQMNSLRAEDTAVYYCARNYYPYDAWFDYWGQGTLVTVS VL: DIQMTQSPSSLSASVGDRVTITCSASSSINSNHLHWYQQKPGKAPKLLIYRTSILASGVPSRFSGSGSGTSFTLTISSLQPEDFATYYCQQGSNIPFTFGQGTKVEIKR | 149% |  | % activity relative to H3K1 [2]: 137%; Fc2/Fc4 [2]: 0.41
M3-11 (X = W) heavy chain with K1 light chain (antibody, V domains shown, Position counted within VH CDR3; also called M3-11 W) VH: EVQLLESGGGLVQPGGSLRLSCAFSGFTLSTSGMGIGWVRQAPGKGLEWVAHIWWDDDKYYNPSLKSRFTISRDTSKNTVYLQMNSLRAEDTAVYYCARNYYPYDAWFDWWGQGTLVTVS VL: DIQMTQSPSSLSASVGDRVTITCSASSSINSNHLHWYQQKPGKAPKLLIYRTSILASGVPSRFSGSGSGTSFTLTISSLQPEDFATYYCQQGSNIPFTFGQGTKVEIK |  | 70% | 
M3-11 (X = R) heavy chain with K1 light chain (antibody, V domains shown, Position counted within VH CDR3; also called M3-11 R) VH: EVQLLESGGGLVQPGGSLRLSCAFSGFTLSTSGMGIGWVRQAPGKGLEWVAHIWWDDDKYYNPSLKSRFTISRDTSKNTVYLQMNSLRAEDTAVYYCARNYYPYDAWFDRWGQGTLVTVS VL: DIQMTQSPSSLSASVGDRVTITCSASSSINSNHLHWYQQKPGKAPKLLIYRTSILASGVPSRFSGSGSGTSFTLTISSLQPEDFATYYCQQGSNIPFTFGQGTKVEIK |  | 220% | 
DI M3 heavy chain with DI K1-C light chain (antibody, V domains shown, also called DI M3 DI K1-C) VH: EVQLLESGGGLVQPGGSLRLSCAASGFTMSTSGMGIGWIRQTPGKGLEWVAHIWWDDDKYYNPSLKSRFTISKDTSKNTLYLQMNSLRAEDTAVYYCARNYYPYDAWFDYWGQGTLVTVS VL: DIQMTQSPSSLSASVGDRVTITCSASTSINSNHLHWYLQKPGKAPKALIYRTSILASGIPSRFSGSGSGTDFTLTISSLQPEDTATYYCQQGSNIPFTFGQGTKVEIKR | 4% |  | 
M3 heavy chain with DI K1-C light chain (antibody, V domains shown, also called M3 DI K1-C) VH: EVQLLESGGGLVQPGGSLRLSCAFSGFTLSTSGMGIGWVRQAPGKGLEWVAHIWWDDDKYYNPSLKSRFTISRDTSKNTVYLQMNSLRAEDTAVYYCARNYYPYDAWFDYWGQGTLVTVS VL: DIQMTQSPSSLSASVGDRVTITCSASTSINSNHLHWYLQKPGKAPKALIYRTSILASGIPSRFSGSGSGTDFTLTISSLQPEDTATYYCQQGSNIPFTFGQGTKVEIKR | 17% |  | 
M3-11 (X = V) heavy chain with K1 light chain (antibody, V domains shown, Position counted within VH CDR3; also called M3-11 V) VH: EVQLLESGGGLVQPGGSLRLSCAFSGFTLSTSGMGIGWVRQAPGKGLEWVAHIWWDDDKYYNPSLKSRFTISRDTSKNTVYLQMNSLRAEDTAVYYCARNYYPYDAWFDVWGQGTLVTVS VL: DIQMTQSPSSLSASVGDRVTITCSASSSINSNHLHWYQQKPGKAPKLLIYRTSILASGVPSRFSGSGSGTSFTLTISSLQPEDFATYYCQQGSNIPFTFGQGTKVEIK |  | 108% | 
DI M3-B heavy chain with K1 light chain (antibody, V domains shown, also called DI M3-B K1) VH: EVQLLESGGGLVQPGGSLRLSCAASGFTMSTSGMGIGWIRQTPGKGLEWVAHIWWDDDKYYNPSLKARFTISRDTSKNTLYLQMNSLRAEDTAVYYCARNYYPYDAWFDYWGQGTLVTVS VL: DIQMTQSPSSLSASVGDRVTITCSASSSINSNHLHWYQQKPGKAPKLLIYRTSILASGVPSRFSGSGSGTSFTLTISSLQPEDFATYYCQQGSNIPFTFGQGTKVEIKR | 122% |  | 
M3-11 (X = L) heavy chain with K1 light chain (antibody, V domains shown, the position is counted within CDR3, not on the entry; also called M3-11 L) VH: EVQLLESGGGLVQPGGSLRLSCAFSGFTLSTSGMGIGWVRQAPGKGLEWVAHIWWDDDKYYNPSLKSRFTISRDTSKNTVYLQMNSLRAEDTAVYYCARNYYPYDAWFDLWGQGTLVTVS VL: DIQMTQSPSSLSASVGDRVTITCSASSSINSNHLHWYQQKPGKAPKLLIYRTSILASGVPSRFSGSGSGTSFTLTISSLQPEDFATYYCQQGSNIPFTFGQGTKVEIK |  | 75% | 
DI M3-B heavy chain with DI K1-C light chain (antibody, V domains shown, also called DI M3-B DI K1-C) VH: EVQLLESGGGLVQPGGSLRLSCAASGFTMSTSGMGIGWIRQTPGKGLEWVAHIWWDDDKYYNPSLKARFTISRDTSKNTLYLQMNSLRAEDTAVYYCARNYYPYDAWFDYWGQGTLVTVS VL: DIQMTQSPSSLSASVGDRVTITCSASTSINSNHLHWYLQKPGKAPKALIYRTSILASGIPSRFSGSGSGTDFTLTISSLQPEDTATYYCQQGSNIPFTFGQGTKVEIKR | 9% |  | 
M3-B heavy chain with DI K1 light chain (antibody, V domains shown, also called M3-B DI K1) VH: EVQLLESGGGLVQPGGSLRLSCAFSGFTLSTSGMGIGWVRQAPGKGLEWVAHIWWDDDKYYNPSLKARFTISRDTSKNTVYLQMNSLRAEDTAVYYCARNYYPYDAWFDYWGQGTLVTVS VL: DIQMTQSPSSLSASVGDRATITCSASSSINSNHLHWYLQKPGKAPKALIYRTSILASGIPSRFSGSGSGTDFTLTISSLQPEDTATYYCQQGSNIPFTFGQGTKVEIKR | 17% |  | 
M3-11 (X = T) heavy chain with K1 light chain (antibody, V domains shown, Position counted within VH CDR3; also called M3-11 T) VH: EVQLLESGGGLVQPGGSLRLSCAFSGFTLSTSGMGIGWVRQAPGKGLEWVAHIWWDDDKYYNPSLKSRFTISRDTSKNTVYLQMNSLRAEDTAVYYCARNYYPYDAWFDTWGQGTLVTVS VL: DIQMTQSPSSLSASVGDRVTITCSASSSINSNHLHWYQQKPGKAPKLLIYRTSILASGVPSRFSGSGSGTSFTLTISSLQPEDFATYYCQQGSNIPFTFGQGTKVEIK |  | 82% | 
M3-11 (X = K) heavy chain with K1 light chain (antibody, V domains shown, Position counted within VH CDR3; also called M3-11 K) VH: EVQLLESGGGLVQPGGSLRLSCAFSGFTLSTSGMGIGWVRQAPGKGLEWVAHIWWDDDKYYNPSLKSRFTISRDTSKNTVYLQMNSLRAEDTAVYYCARNYYPYDAWFDKWGQGTLVTVS VL: DIQMTQSPSSLSASVGDRVTITCSASSSINSNHLHWYQQKPGKAPKLLIYRTSILASGVPSRFSGSGSGTSFTLTISSLQPEDFATYYCQQGSNIPFTFGQGTKVEIK |  | 82% | 
M3-B heavy chain with DI K1-C light chain (antibody, V domains shown, also called M3-B DI K1-C) VH: EVQLLESGGGLVQPGGSLRLSCAFSGFTLSTSGMGIGWVRQAPGKGLEWVAHIWWDDDKYYNPSLKARFTISRDTSKNTVYLQMNSLRAEDTAVYYCARNYYPYDAWFDYWGQGTLVTVS VL: DIQMTQSPSSLSASVGDRVTITCSASTSINSNHLHWYLQKPGKAPKALIYRTSILASGIPSRFSGSGSGTDFTLTISSLQPEDTATYYCQQGSNIPFTFGQGTKVEIKR | 14% |  | 
M3-11 (X = Q) heavy chain with K1 light chain (antibody, V domains shown, Position counted within VH CDR3; also called M3-11 Q) VH: EVQLLESGGGLVQPGGSLRLSCAFSGFTLSTSGMGIGWVRQAPGKGLEWVAHIWWDDDKYYNPSLKSRFTISRDTSKNTVYLQMNSLRAEDTAVYYCARNYYPYDAWFDQWGQGTLVTVS VL: DIQMTQSPSSLSASVGDRVTITCSASSSINSNHLHWYQQKPGKAPKLLIYRTSILASGVPSRFSGSGSGTSFTLTISSLQPEDFATYYCQQGSNIPFTFGQGTKVEIK |  | 73% | 
DI M3 heavy chain with K1-C light chain (antibody, V domains shown, also called DI M3 K1-C) VH: EVQLLESGGGLVQPGGSLRLSCAASGFTMSTSGMGIGWIRQTPGKGLEWVAHIWWDDDKYYNPSLKSRFTISKDTSKNTLYLQMNSLRAEDTAVYYCARNYYPYDAWFDYWGQGTLVTVS VL: DIQMTQSPSSLSASVGDRVTITCSASTSINSNHLHWYQQKPGKAPKLLIYRTSILASGVPSRFSGSGSGTSFTLTISSLQPEDFATYYCQQGSNIPFTFGQGTKVEIKR | 96% |  | 
M3-11 (X = S) heavy chain with K1 light chain (antibody, V domains shown, Position counted within VH CDR3; also called M3-11 S) VH: EVQLLESGGGLVQPGGSLRLSCAFSGFTLSTSGMGIGWVRQAPGKGLEWVAHIWWDDDKYYNPSLKSRFTISRDTSKNTVYLQMNSLRAEDTAVYYCARNYYPYDAWFDSWGQGTLVTVS VL: DIQMTQSPSSLSASVGDRVTITCSASSSINSNHLHWYQQKPGKAPKLLIYRTSILASGVPSRFSGSGSGTSFTLTISSLQPEDFATYYCQQGSNIPFTFGQGTKVEIK |  | 39% | 
DI M3-B heavy chain with DI K1 light chain (antibody, V domains shown, also called DI M3-B DI K1) VH: EVQLLESGGGLVQPGGSLRLSCAASGFTMSTSGMGIGWIRQTPGKGLEWVAHIWWDDDKYYNPSLKARFTISRDTSKNTLYLQMNSLRAEDTAVYYCARNYYPYDAWFDYWGQGTLVTVS VL: DIQMTQSPSSLSASVGDRATITCSASSSINSNHLHWYLQKPGKAPKALIYRTSILASGIPSRFSGSGSGTDFTLTISSLQPEDTATYYCQQGSNIPFTFGQGTKVEIKR | 11% |  | 
